Entries after “also recorded” stand apart in the source; their conditions may differ.
Legend:
[1] = test system: HLA-B*0702 transgenic mice; assay: CTL induction in vivo in HLA-B*0702 transgenic mice (immunogenicity, cytotoxic assay on peptide-loaded RMA-B7 targets); design: key: +: means that a specific immunoresponse was generated at least one HLA-B*0702 transgenic mice; settings: Table IV
Experimental: (§1) CTL Induction in vivo in HLA-B*0702 Transgenic Mice. Mice were injected subcutaneously with 100 μg of peptide emulsified in Incomplete Freund's Adjuvant (IFA) in the presence of 150 μg of the I-A^b restricted HBVcore128 T helper epitope ([…], SEQ ID NO: 10). After 11 days, 5×10^7 spleen cells were stimulated in vitro with peptide (10 μM). On day 6 of culture, the bulk responder populations were tested for specific cytotoxicity.
(§2) Cytotoxic assay. Targets were labelled with 100 μCi of Cr^51 for 60 min, plated in 96-well V-bottomed plates (3×10^3 cell/well in 100 μL of RPMI 1640 medium) and, when necessary, pulsed with peptides (1 μM) at 37° C. for 2 hours. Effectors were then added in the wells and incubated at 37° C. for 4 hours. Percentage of specific lysis was determined as: % Lysis=(Experimental Release−Spontaneous Release)/(Maximal Release−Spontaneous Release)×100.
(§3) HLA-B7 transgenic mice were vaccinated with the selected peptides, and eleven days later, their spleen cells were in vitro stimulated with the peptide.

HLA-B*0702 = biological target: T1, HLA-B*0702 (Homo sapiens, UniProt P01889); assay: Measurement of peptide relative affinity to HLA-B*0702 (T2-B7 cells, ME-1 mAb staining); format: binding; settings: for RA: class symbols, Table IV; for RA (relative affinity for HLA-B*0702): T2-B7 cells, 16 hours 37° C., ratio of concentrations inducing 20% HLA-B*0702 expression vs reference peptide CMV265-274
T1 construct: expressed in transfected cells; host or cells: human T2 cells transfected with HLA-B*0702 (T2-B7)
Experimental: The affinity of a peptide for HLA-B*0702 can be determined by methods known in the art, for instance by the assay described by Rohrlich et al., 2003. Results are expressed as relative affinity (RA) when compared to a reference peptide. […] Peptides with RA greater than 10 are therefore considered to be cryptic peptides (or epitopes).
Measurement of Peptide Relative Affinity to HLA-B*0702. The protocol used has been described previously (Rohrlich et al., 2003). Briefly, T2-B7 cells were incubated at 37° C. for 16 hours with peptides concentrations ranging from 100 μM to 0.1 μM, and then stained with ME-1 monoclonal antibody (mAb) to quantify the surface expression of HLA-B*0702. For each peptide concentration, the HLA-B*0702 specific staining was calculated as the percentage of staining obtained with 100 μM of the reference peptide CMV265-274 (R10V; […], SEQ ID NO: 9). The relative affinity (RA) was determined as: RA=(Concentration of each peptide that induces 20% of HLA-B*0702-expression/Concentration of the reference peptide that induces 20% of HLA-B*0702 expression).

[2] = test system: HLA-B*0702 transgenic mice; assay: CTL induction in vivo in HLA-B*0702 transgenic mice (immunogenicity, cytotoxic assay on peptide-loaded RMA-B7 targets); settings: HLA-B*0702 transgenic mice
Experimental: as §1, §2, §3

Sequence | Immunogenicity [1] | RA (HLA-B*0702) | Affinity for HLA-B*0702 (in words) (HLA-B*0702) | Immunogenicity: specific CTL immune response (in words) [2] | further results
APRPWTPCL (a HLA-B*0702 restricted peptide) | + | + (+ = 1 < RA < 10) |  |  | 
EPVTKAEML [MAGE-A121.1] |  |  | low affinity |  | RA (relative affinity for HLA-B*0702) (HLA-B*0702): >10
APRQLGREL (a HLA-B*0702 restricted peptide) | + |  |  |  | 
APRALVETL (MAGE-A antigen peptide) | + | + (+ = 1 < RA < 10) |  |  | 
APREISSMVL (HSP70_115A1R3 optimized peptide) [Hsp70115A1R3] | + | + (+ = 1 < RA < 10) | strong affinity | induced an immune response in the majority of vaccinated mice | Recognition of the native peptide by CTL generated with the optimized peptide (in words) [2]: recognized the optimized peptide but not the corresponding native peptide
GPKHSDCLA (HER-2/neu246 HLA-B*0702 restricted cryptic epitope) [Her2/neu246] |  |  |  | not immunogenic | 
APRTKAEML (MAGE-121.1 A1R3 optimized peptide) | + | + (+ = 1 < RA < 10) |  |  | 
APEEISSMVL (HSP70_115A1 optimized peptide) [Hsp70 115A1] |  |  |  |  | RA (relative affinity for HLA-B*0702) (HLA-B*0702): >10
APLSLGLET (Hsp70 397 antigen peptide) |  |  | low affinity | Only the high affinity TERT4 was immunogenic | RA (relative affinity for HLA-B*0702) (HLA-B*0702): >10
EPITKAEIL (MAGE-A121.4 antigen peptide) |  |  | low affinity |  | RA (relative affinity for HLA-B*0702) (HLA-B*0702): >10
YPVTNAVITV (Hsp70 137(10) antigen peptide) [Hsp70 137 (10)] |  |  | low affinity; also recorded: non binders | Only the high affinity TERT4 was immunogenic | 
APRGVPQIEL (a HLA-B*0702 restricted peptide) | + |  |  |  | 
EPFTKAEML (MAGE-A121.2 antigen peptide) |  |  | low affinity |  | RA (relative affinity for HLA-B*0702) (HLA-B*0702): >10
APRMPEAAL (a HLA-B*0702 restricted peptide) | + |  |  |  | 
APRSPLAPS (HER-2/neu1069 HLA-B*0702 restricted cryptic epitope) [Her2/neu1069] |  |  |  | not immunogenic | 
YPEEISSMVL (peptide of Hsp70_115) [Hsp70 115] |  |  | low affinity; also recorded: non binders | Only the high affinity TERT4 was immunogenic | 
APRSLGLEL (HSP70_397R3L9 optimized peptide) [Hsp70397R3L9] | + | ++ (++ = RA < 1) | strong affinity | induced an immune response in the majority of vaccinated mice | Recognition of the native peptide by CTL generated with the optimized peptide (in words) [2]: recognized the optimized peptide but not the corresponding native peptide
APRMHCAVDL (EphA2) | + | ++ (++ = RA < 1) |  |  | 
APRVSIRLPL (EphA2) |  | ++ (++ = RA < 1) |  |  | 
APRASSPLL (a HLA-B*0702 restricted peptide) | + |  |  |  | 
SPKANKEIL (HER-2/neu760 HLA-B*0702 restricted cryptic epitope) [Her2/neu760] |  |  |  | not immunogenic | 
APRRRLGCEL (TERT antigen peptide) | + | + (+ = 1 < RA < 10) |  |  | 
APREYVNAL (Her-2/neu) | + | + (+ = 1 < RA < 10) |  |  | 
APVTKAEML (MAGE-121.1 A1 optimized peptide) [MAGE-121.1/A1] |  |  |  |  | RA (relative affinity for HLA-B*0702) (HLA-B*0702): >10

From patent US20170202936A1, “Identification, Optimization And Use Of Cryptic HLA-B7 Epitopes For Immunotherapy” (VAXON BIOTECH, priority 2006, published 2017)
